# Assay results as given in US20190241648A1 (STATEN BIOTECHNOLOGY B V, published 2019).
# Ends that are not written are not given here.
# T1: ApoC3 peptide K60Y (human, cyclic (thioether))
# T1 peptide: DYFSEFWDLDPEV
# T2: ApoC3 peptide D66G (human, not fully specified; cyclic (thioether))
# T2 peptide: DKFSEFWGLDPEV
# T3: ApoC3 peptide K60I (human, cyclic (thioether))
# T3 peptide: DIFSEFWDLDPEV
# T4: ApoC3 peptide D68A (human, cyclic (thioether))
# T4 peptide: DKFSEFWDLAPEV
# T5: ApoC3 peptide S62G (human, not fully specified; cyclic (thioether))
# T5 peptide: DKFGEFWDLDPEV
# T6: ApoC3 peptide V71Y (human, not fully specified; cyclic (thioether))
# T6 peptide: DKFSEFWDLDPEY
# T7: ApoC3 peptide D68M (human, cyclic (thioether))
# T7 peptide: DKFSEFWDLMPEV
# T8: ApoC3 peptide L67T (human, thioether (positions not given here); not fully specified (bridges); also: thioether between a C-terminal Cys side chain and a modified N-terminus, the Cys is not in the chain)
# T8 peptide: DKFSEFWDTDPEV
# T9: ApoC3 peptide F64K (human, thioether (positions not given here); not fully specified (bridges); also: cyclic (thioether), positions not given here)
# T9 peptide: DKFSEKWDLDPEV
# T10: ApoC3 peptide V71T (human, not fully specified; cyclic (thioether))
# T10 peptide: DKFSEFWDLDPET
# T11: ApoC3 peptide F61R (human, cyclic (thioether))
# T11 peptide: DKRSEFWDLDPEV
# T12: ApoC3 peptide D59H (human, thioether (positions not given here); not fully specified (C-terminus, bridges))
# T12 peptide: HKFSEFWDLDPEV
# T13: wild-type ApoC3 peptide DKFSEFWDLDPEV (human, cyclic (thioether))
# T13 construct: 13 aa cyclic constrained peptide
# T13 peptide: DKFSEFWDLDPEV
# T14: ApoC3 peptide D68S (human, cyclic (thioether))
# T14 peptide: DKFSEFWDLSPEV
# T15: ApoC3 peptide F61G (human, cyclic (thioether))
# T15 peptide: DKGSEFWDLDPEV
# T16: ApoC3 peptide E63C (human, not fully specified; cyclic (thioether))
# T16 peptide: DKFSCFWDLDPEV
# T17: ApoC3 peptide L67W (human, thioether (positions not given here); not fully specified (bridges); also: thioether between a C-terminal Cys side chain and a modified N-terminus, the Cys is not in the chain)
# T17 peptide: DKFSEFWDWDPEV
# T18: ApoC3 peptide E70A (human, cyclic (thioether))
# T18 peptide: DKFSEFWDLDPAV
# T19: ApoC3 peptide F61S (human, cyclic (thioether))
# T19 peptide: DKSSEFWDLDPEV
# T20: ApoC3 peptide D59I (human, thioether (positions not given here); not fully specified (C-terminus, bridges))
# T20 peptide: IKFSEFWDLDPEV
# T21: ApoC3 peptide D68E (human, cyclic (thioether))
# T21 peptide: DKFSEFWDLEPEV
# T22: ApoC3 peptide D59T (human, thioether (positions not given here); not fully specified (C-terminus, bridges); also: cyclised via thioether between a C-terminal Cys and a modified N-terminus, the Cys and the N-terminal …)
# T22 peptide: TKFSEFWDLDPEV
# T23: ApoC3 peptide K60Q (human, cyclic (thioether))
# T23 peptide: DQFSEFWDLDPEV
# T24: ApoC3 peptide K60S (human, cyclic (thioether))
# T24 peptide: DSFSEFWDLDPEV
# T25: ApoC3 peptide F64Q (human, thioether (positions not given here); not fully specified (bridges); also: cyclic (thioether), positions not given here)
# T25 peptide: DKFSEQWDLDPEV
# T26: ApoC3 peptide P69C (human, thioether (positions not given here); not fully specified (bridges); also: thioether from modified N-terminus to C-terminal Cys (Cys not in chain))
# T26 peptide: DKFSEFWDLDCEV
# T27: ApoC3 peptide V71Q (human, not fully specified; cyclic (thioether))
# T27 peptide: DKFSEFWDLDPEQ
# T28: ApoC3 peptide F64W (human, thioether (positions not given here); not fully specified (bridges); also: cyclic (thioether), positions not given here)
# T28 peptide: DKFSEWWDLDPEV
# T29: ApoC3 peptide S62A (human, not fully specified; cyclic (thioether))
# T29 peptide: DKFAEFWDLDPEV
# T30: ApoC3 peptide L67I (human, thioether (positions not given here); not fully specified (bridges); also: thioether between a C-terminal Cys side chain and a modified N-terminus, the Cys is not in the chain)
# T30 peptide: DKFSEFWDIDPEV
# Tests used:
# Assay in all cases: cyclic peptide substitution array
# ApoC3 peptide K60Y = molecular target: T1, ApoC3 peptide K60Y
# Text: (§1) S62 and D68 of mature huApoC3 were also highly conserved; substitution of S62 by A or V, and substitution of D68 by E or P, caused decrease of spot intensities by ˜60% or higher. […] Amino acid F64 was completely variable.
# (§2) Pre: staining of one of the ApoC3 peptide microarrays was done with the secondary antibody goat anti-human IgG (Fe) DyLight680 (1:5000) and control antibody mouse monoclonal anti-HA (12CA5) DyLight800 (1:2000) to investigate background interactions of the secondary antibody with the antigen-derived peptides that could interfere with the main assays. Subsequent incubation of other ApoC3 peptide microarrays with antibody samples was followed by staining with secondary and control antibodies as well as read-out at scanning intensities of 7/7 (red/green). The additional HA peptides framing the peptide arrays were stained as internal quality control to confirm the assay quality and the peptide microarray integrity.
# ApoC3 peptide D66G = molecular target: T2, ApoC3 peptide D66G
# Text: as §1, §2
# ApoC3 peptide K60I = molecular target: T3, ApoC3 peptide K60I
# Text: as §1, §2
# ApoC3 peptide D68A = molecular target: T4, ApoC3 peptide D68A
# Text: as §1, §2
# ApoC3 peptide S62G = molecular target: T5, ApoC3 peptide S62G
# Text: as §1, §2
# ApoC3 peptide V71Y = molecular target: T6, ApoC3 peptide V71Y
# Text: as §1, §2
# ApoC3 peptide D68M = molecular target: T7, ApoC3 peptide D68M
# Text: as §1, §2
# ApoC3 peptide L67T = molecular target: T8, ApoC3 peptide L67T
# Text: as §1, §2
# ApoC3 peptide F64K = molecular target: T9, ApoC3 peptide F64K
# Text: as §1, §2
# ApoC3 peptide V71T = molecular target: T10, ApoC3 peptide V71T
# Text: as §1, §2
# ApoC3 peptide F61R = molecular target: T11, ApoC3 peptide F61R
# Text: as §1, §2
# ApoC3 peptide D59H = molecular target: T12, ApoC3 peptide D59H
# Text: as §1, §2
# [1] = molecular target: T13, wild-type ApoC3 peptide DKFSEFWDLDPEV
# Text: as §1, §2
# ApoC3 peptide D68S = molecular target: T14, ApoC3 peptide D68S
# Text: as §1, §2
# ApoC3 peptide F61G = molecular target: T15, ApoC3 peptide F61G
# Text: as §1, §2
# ApoC3 peptide E63C = molecular target: T16, ApoC3 peptide E63C
# Text: as §1, §2
# ApoC3 peptide L67W = molecular target: T17, ApoC3 peptide L67W
# Text: as §1, §2
# ApoC3 peptide E70A = molecular target: T18, ApoC3 peptide E70A
# Text: as §1, §2
# ApoC3 peptide F61S = molecular target: T19, ApoC3 peptide F61S
# Text: as §1, §2
# ApoC3 peptide D59I = molecular target: T20, ApoC3 peptide D59I
# Text: as §1, §2
# ApoC3 peptide D68E = molecular target: T21, ApoC3 peptide D68E
# Text: as §1, §2
# ApoC3 peptide D59T = molecular target: T22, ApoC3 peptide D59T
# Text: as §1, §2
# ApoC3 peptide K60Q = molecular target: T23, ApoC3 peptide K60Q
# Text: as §1, §2
# ApoC3 peptide K60S = molecular target: T24, ApoC3 peptide K60S
# Text: as §1, §2
# ApoC3 peptide F64Q = molecular target: T25, ApoC3 peptide F64Q
# Text: as §1, §2
# ApoC3 peptide P69C = molecular target: T26, ApoC3 peptide P69C
# Text: as §1, §2
# ApoC3 peptide V71Q = molecular target: T27, ApoC3 peptide V71Q
# Text: as §1, §2
# ApoC3 peptide F64W = molecular target: T28, ApoC3 peptide F64W
# Text: as §1, §2
# ApoC3 peptide S62A = molecular target: T29, ApoC3 peptide S62A
# Text: as §1, §2
# ApoC3 peptide L67I = molecular target: T30, ApoC3 peptide L67I
# Text: as §1, §2
binder,measurement,setting,value
"Llama antibody 5E5 (antibody, V domains shown, detected with goat anti-human IgG (Fc); also called mAb 5E5) VH: QLQLVESGGGLVQPGGSLRLSCAASGFTFGTYSMRWVRQVPRKALEWVSSISTDGGGTAYRDSVKGRFTISRDNAKNTLYLQMNNLKPEDTAIYYCVIAGYSDWGQGTQVTVSS VL: ATMLTQSPGSLSVVPGESASISCKTSQGLVHSDGKTYFYWFLQKPGQSPQQLIYQVSNRASGVPDRFTGSGSGTDFTLKISGVKAEDAGVYYCAQGTYYPHTFGSGTRLEIK",% of binding to wild-type peptide,ApoC3 peptide K60Y,56.3%
same,% of binding to wild-type peptide,ApoC3 peptide D66G,0%
same,% of binding to wild-type peptide,ApoC3 peptide K60I,106%
same,% of binding to wild-type peptide,ApoC3 peptide D68A,1.75%
same,% of binding to wild-type peptide,ApoC3 peptide S62G,0.88%
same,% of binding to wild-type peptide,ApoC3 peptide V71Y,87.4%
same,% of binding to wild-type peptide,ApoC3 peptide D68M,2.82%
same,% of binding to wild-type peptide,ApoC3 peptide L67T,168%
same,% of binding to wild-type peptide,ApoC3 peptide F64K,114%
same,% of binding to wild-type peptide,ApoC3 peptide V71T,96.7%
same,% of binding to wild-type peptide,ApoC3 peptide F61R,2.77%
same,% of binding to wild-type peptide,ApoC3 peptide D59H,52.8%
same,% of binding to wild-type peptide,[1],100%
same,% of binding to wild-type peptide,ApoC3 peptide D68S,0.17%
same,% of binding to wild-type peptide,ApoC3 peptide F61G,0.74%
same,% of binding to wild-type peptide,ApoC3 peptide E63C,2.3%
same,% of binding to wild-type peptide,ApoC3 peptide L67W,1.45%
same,% of binding to wild-type peptide,ApoC3 peptide E70A,50%
same,% of binding to wild-type peptide,ApoC3 peptide F61S,22.6%
same,% of binding to wild-type peptide,ApoC3 peptide D59I,49.1%
same,% of binding to wild-type peptide,ApoC3 peptide D68E,40.1%
same,% of binding to wild-type peptide,ApoC3 peptide D59T,94.9%
same,% of binding to wild-type peptide,ApoC3 peptide K60Q,178%
same,% of binding to wild-type peptide,ApoC3 peptide K60S,174%
same,% of binding to wild-type peptide,ApoC3 peptide F64Q,130%
same,% of binding to wild-type peptide,ApoC3 peptide P69C,3.72%
same,% of binding to wild-type peptide,ApoC3 peptide V71Q,86.8%
same,% of binding to wild-type peptide,ApoC3 peptide F64W,88.5%
same,% of binding to wild-type peptide,ApoC3 peptide S62A,29.6%
same,% of binding to wild-type peptide,ApoC3 peptide L67I,46.9%
